# Data from US20190112392A1 (Ablynx, published 2019).
# T1: human CD20 on cells (human, UniProt P11836 1-297)
# T1 construct: whole, on cells; Tumour antigen on the target cells; also called CD20 positive Ramos cells; Ramos cells
# T1 sequence (looked up): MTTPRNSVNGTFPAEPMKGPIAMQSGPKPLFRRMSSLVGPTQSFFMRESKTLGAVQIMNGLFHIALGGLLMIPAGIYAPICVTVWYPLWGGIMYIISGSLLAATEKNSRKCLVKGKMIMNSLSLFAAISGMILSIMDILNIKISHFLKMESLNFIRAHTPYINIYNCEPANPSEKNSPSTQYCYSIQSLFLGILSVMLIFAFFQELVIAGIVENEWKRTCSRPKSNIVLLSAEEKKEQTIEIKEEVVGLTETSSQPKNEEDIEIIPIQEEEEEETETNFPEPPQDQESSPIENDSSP
# T2: T cell receptor alpha/beta on purified primary human T cells (human, UniProt P01848 1-140; P01850 1-176)
# T2 construct: whole, on cells; also called human primary T cells
# T2 TCR alpha (looked up): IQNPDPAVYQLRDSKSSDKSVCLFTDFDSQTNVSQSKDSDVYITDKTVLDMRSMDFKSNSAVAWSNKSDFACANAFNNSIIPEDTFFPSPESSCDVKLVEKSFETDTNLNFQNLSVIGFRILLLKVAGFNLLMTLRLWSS
# T2 TCR beta (looked up): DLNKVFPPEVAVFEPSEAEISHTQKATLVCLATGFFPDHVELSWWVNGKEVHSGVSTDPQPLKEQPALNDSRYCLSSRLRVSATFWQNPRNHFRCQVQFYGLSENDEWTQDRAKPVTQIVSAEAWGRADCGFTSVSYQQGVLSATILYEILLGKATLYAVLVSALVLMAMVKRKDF
# T3: soluble recombinant cynomolgus TCR alpha/beta-zipper protein (cynomolgus/rhesus monkey)
# T3 construct: Made in house in CHOK1SV cells; extracellular domains fused to a zipper protein; also called cynoTCR-zipper protein; not shown: zipper protein (O'Shea et al. 1993)
# T3 V domain 1: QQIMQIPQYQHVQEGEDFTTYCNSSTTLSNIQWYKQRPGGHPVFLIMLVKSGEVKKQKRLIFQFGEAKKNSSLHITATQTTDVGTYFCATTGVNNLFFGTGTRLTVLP
# T3 V domain 2: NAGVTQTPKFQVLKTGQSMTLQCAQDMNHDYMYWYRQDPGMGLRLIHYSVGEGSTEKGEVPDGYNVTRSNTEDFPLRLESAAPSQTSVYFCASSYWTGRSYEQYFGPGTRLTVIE
# B1: anti-CD20 Nanobody (VHH)
# VHH: EVQLVESGGGLVQPGGSLRLSCTFSGGTFSSYTMGWFRQAPGKEREFVAEVRWGGVTTYSNSLKDRFSISEDSVKNAVYLQMNSLKPEDTAVYYCAAVRQMYMTVVPDYWGQGTLVTVSS
# B2: T017000068 (bispecific antibody)
# chain: EVQLVESGGGLVQPGGSLRLSCTFSGGTFSSYTMGWFRQAPGKEREFVAEVRWGGVTTYSNSLKDRFSISEDSVKNAVYLQMNSLKPEDTAVYYCAAVRQMYMTVVPDYWGQGTLVTVSSGGGGSGGGGSGGGGSGGGGSGGGGSGGGGSGGGGSEVQLVESGGGLVQPGGSLRLSCITSGETFKINIWGWYRQAPGKQRELVASLTIGGATNYADSVKGRFTISEDSAKNTVYLQMNSLKPEDTAVYFCNAKSRLYPYDYWGQGTLVTVSSGAADYKDHDGDYKDHDIDYKDDDDKGAAHHHHHH
# notes: CD20 x TCR bispecific Nanobody construct (cluster B); entry includes the FLAG3-HIS6 tag; also called 20CD019C07-35GS-T0170055C07-FLAG3-HIS6
# B3: cAblys (VHH)
# VHH: DVQLQASGGGSVQAGGSLRLSCAASGYTIGPYCMGWFRQAPGKEREGVAAINMGGGITYYADSVKGRFTISQDNAKNTVYLLMNSLEPEDTAIYYCAADSTIYASYYECGHGLSTGGYGYDSWGQGTQVTVSS
# notes: also called cAblys3; irrelevant anti-egg lysozyme Nanobody
# B4: T017000076 (bispecific antibody)
# chain: EVQLVESGGGLVQPGGSLRLSCTFSGGTFSSYTMGWFRQAPGKEREFVAEVRWGGVTTYSNSLKDRFSISEDSVKNAVYLQMNSLKPEDTAVYYCAAVRQMYMTVVPDYWGQGTLVTVSSGGGGSGGGGSGGGGSGGGGSGGGGSGGGGSGGGGSEVQLVESGGGLVQPGGSLRLSCVASGDVHKINFLGWYRQAPGKEREKVAHISIGDQTDYADSAKGRFTISRDESKNMVYLQMNSLKPEDTAVYFCRAFSRIYPYDYWGQGTLVTVSSGAADYKDHDGDYKDHDIDYKDDDDKGAAHHHHHH
# notes: CD20 x TCR bispecific Nanobody construct (cluster A); entry includes the FLAG3-HIS6 tag; also called 20CD019C07-35GS-T0170056G05-FLAG3-HIS6
# What was measured:
# [1] = target: T1, human CD20 on cells; assay: flow cytometry on Raji cells, MCF (Mean PE)
# [2] = target: T1, human CD20 on cells; assay: flow cytometry on Ramos cells, MCF (Mean PE)
# [3] = target: T1, human CD20 on cells; assay: flow cytometry, Ramos cells
# [4] = target: T1, human CD20 on cells; assay: cell-based or functional assay
# [5] = target: T1, human CD20 on cells; assay: cell-based or functional assay; remark: listed apart in the source
# [6] = target: T2, T cell receptor alpha/beta on purified …; assay: flow cytometry, purified primary human T cells; purified primary human T cells
# [7] = target: T3, soluble recombinant cynomolgus TCR …; assay: ELISA, 2 µg/mL coated soluble recombinant cynomolgus TCR α/β-zipper protein, OD 450 nm
# Protocol: Quality of the TCR α/β zipper proteins was assessed in an ELISA binding assay. Maxisorp 96-well ELISA plates (Nunc) were coated with 2 μg/mL soluble recombinant human TCR α/β (2XN9)-zipper protein or soluble recombinant cynomolgus TCR α/β-zipper protein. After an overnight incubation, plates were washed and blocked with PBS+1% casein for 1 h at room temperature. Next, plates were incubated with serial dilutions of either a functional flag tagged Nanobody or the functional mouse IgG anti-non-human primate/Rat TCRα/β antibody, clone R73 (eBioscience 16-5960) for 1 h at room temperature while shaking, washed again and incubated with mouse anti-flag-HRP (Sigma, #A8592) respectively rabbit anti-mouse-HRP (Dako, # P0260). After 1 h, TMB One Solution (Promega #G7431) was added. The reaction was stopped with 2M H₂SO₄ and the dose dependent binding was determined by measuring the OD at 450 nm using the Tecan sunrise 4 (FIG. 2).
# [8] = target: T4, T cell receptor alpha/beta on primary cynomolgus T cells (cynomolgus); assay: cell-based or functional assay
# [9] = target: T4, T cell receptor alpha/beta on primary …; assay: cell-based or functional assay; remark: listed apart in the source
# [10] = target: T4, T cell receptor alpha/beta on primary …; assay: cell-based or functional assay; remark: listed apart in the source
# [11] = target: T2, T cell receptor alpha/beta on purified …; assay: flow cytometry, purified primary human T cells
# [12] = target: T4, T cell receptor alpha/beta on primary …; assay: cell-based or functional assay; remark: listed apart in the source
binder,measurement,setting,value
B1,EC50 (read off the curve),[1],~20 nM
same,EC50 (read off the curve),[2],~9 nM
B2,EC50,[3],1.8 nM
same,"IC50, xCELLigence human T cell mediated CHO-K1 CD20 killing assay, E:T 30:1, 44 h",[4],13 nM
same,"IC50, flow cytometry based human T cell mediated Ramos killing assay, E:T 10:1",[5],1 nM
same,EC50,[6],6.2 nM
B3,binding result,[7],no binding (tested: 1e-6 M)
B4,"IC50, flow cytometry based cynomolgus T cell mediated B cell (Ramos) killing assay",[8],0.309 nM
same,EC50,[3],1.8 nM
same,"IC50, xCELLigence human T cell mediated CHO-K1 CD20 killing assay, E:T 30:1, 44 h",[4],0.36 nM
same,"IC50, xCELLigence cynomolgus T cell mediated CHO-K1 human CD20 killing assay, E:T 30:1",[9],0.67 nM
same,"IC50, cynomolgus T cell dependent B cell (Ramos) killing assay",[10],0.52 nM
same,EC50,[11],130 nM
same,"IC50, flow cytometry based human T cell mediated Ramos killing assay, E:T 10:1",[5],0.3 nM
same,"IC50, xCELLigence cynomolgus T cell mediated CHO-K1 human CD20 killing assay",[12],0.14 nM
